This note sets out measurements from patent EP4703390A1.

For assay [1], the target named is EGFR and c-Met on the surface of tumor cells (human) (UniProt P00533). Put plainly: cell-based or functional assay.
Assay [2] shares this target. In words: flow cytometry, A431 cells; hIgG1 negative control, EC50 could not be fitted. (In general: Flow cytometry measures light scatter and fluorescence of single cells or particles in a stream.)
For assay [3] the target is unchanged. In words: flow cytometry, NCI-H1975 cells; hIgG1 negative control, EC50 could not be fitted.
For assay [4] the target is unchanged. In words: flow cytometry, NCI-H1993 cells; hIgG1 negative control, EC50 could not be fitted.

In assay [1], “hIgG1 (Biointron, Cat. No. B117901) (antibody)” had an endocytic activity Top(MFI), A431 cells (negative control) of 118000 MFI; an endocytic activity Top(MFI), NCI-H441 cells (negative control) of 97500 MFI; an endocytic activity Top(MFI), NCI-H1975 cells (negative control) of 110000 MFI. In addition, in assay [2], the Top(MFI) stood at 168000 MFI. Also, the Top(MFI) in assay [3] came out at 38700 MFI. In assay [4], the Top(MFI) was determined as 31200 MFI.
